Data from the supplement of paper PMC12764529.
± gives the half width of the 95% confidence interval.

Key:
[1] = folding stability dG unfold from trypsin proteolysis; higher = more stable
Outline: (§1)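 How resistant each design was to proteolysis was captured as K50, inferred by Bayesian fitting of sequencing counts. Unfolding free energy was then derived relative to a sequence-predicted unfolded-state K50 and a shared folded-state K50, per protease or combined. Digestion used trypsin and chymotrypsin at 11 threefold-diluted concentrations plus a no-protease condition, on mini-proteins under 80 residues without cysteine in a PA-tagged cDNA display construct. Designs were kept only when AlphaFold2 dimer inter-PAE was above 15.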

[2] = folding stability dG unfold from chymotrypsin proteolysis; higher = more stable
Outline: as §1

[3] = folding stability dG unfold (combined trypsin and chymotrypsin); higher = more stable
Outline: as §1

| Sequence | folding stability dG unfold [1] [kJ/mol] | folding stability dG unfold [2] [kJ/mol] | folding stability dG unfold [3] [kJ/mol] |
| --- | --- | --- | --- |
| SAGGSAGGSMTVERNVTSEEEAEEWREEIEKELGVKVEEVIREETEEGDLRVKFVIEIPEDLKSAGGSAGGS [r12_577_JUSTAS] | 1.55 ± 0.289 | -1.54 ± 0.837 | 0.225 ± 0.753 |
| SAGGSAGGSMTVETTPLATSRDPESDNTVTLTRTTVTFPDGTVRTETWTVTTAPDGTTTTTVSSAGGSAGGS [r12_250_JUSTAS] | 0.0157 ± 0.155 | 5.66 ± 0.138 | 4.18 ± 0.205 |
| SAGGSAGGSMTVTVRRVYFPPNLAEGMTVEELRKKLGVPDLPVLVVDVEVTLTPEELEALLKESAGGSAGGS [r12_178_TrMRF] | 5.81 ± 0.172 | 9.26 ± 0.151 | 8.22 ± 0.209 |
| SAGGSAGGSMVEITFPPDLSEEEAEALAKELEEKYNKKVKITKVPPEIPVPLPQYDPTNWVEVSAGGSAGGS [r12_159_JUSTAS] | -0.21 ± 0.251 | -0.128 ± 0.46 | -0.454 ± 0.837 |
| SAGGSAGGSMVFESTSVYTFPEQNTVVVTKTTTTVTKTPDGSSSVSTSTTTTVLTVPPPEPLVSAGGSAGGS [r12_277_JUSTAS] | 11 ± 0.502 | 15.3 ± 0.544 | 11.9 ± 1.26 |
| SAGGSAGGSMVKTFPESEPGERVTRELILTPDSIEIVETVVKTDPATGKPVEEVLLRRSTLPLSAGGSAGGS [r12_70_JUSTAS] | -3.13 ± 1.67 | -1.32 ± 1.72 | -1.48 ± 1.21 |
| SAGGSAGGSMVKVEVTTTYDPSSNKTTVTTTTTLTEGGGTVLGTKTTTTTTTISPTTPVTSVTSAGGSAGGS [r12_254_JUSTAS] | 2.53 ± 0.13 | 4.9 ± 0.0628 | 4 ± 0.176 |
| SAGGSAGGSMVYKVTVYIPESGETREFVDPGSEEEIKARVKELFPDPNVKVEITPIEASPELLSAGGSAGGS [r12_92_JUSTAS] | 8.81 ± 0.176 | 6.32 ± 0.213 | 7.61 ± 0.188 |
| SAGGSAGGSMWIVRIEYENPDNGKTYTIPIFVPPEDAEEIAKEIAEQLPGIKDIKVEIYPLNDSAGGSAGGS [r12_757_TrROS] | 6.37 ± 0.268 | 9.29 ± 0.331 | 8.49 ± 0.669 |
| SAGGSAGGSNKKKKTIMFTIKLDVPEGTPTAEEIADELKELSPNVEIDNIMFTPNEVYIMIKVSAGGSAGGS [r12_454_TrROS] | 4.84 ± 0.322 | 7.7 ± 0.259 | 6.75 ± 0.753 |
| SAGGSAGGSNKPVYFRAKIRNPDGKPIGEIEIPAKFDSLEDARSFAENLAKDLPGYKVEIELVSAGGSAGGS [r20_201_TrROS] | 8.625 ± 0.0502 | 5.76 ± 0.351 | 7.4 ± 0.339 |
| SAGGSAGGSNLEEFLAKLPPDVEVVVDPETGTVLVRFPKTGTVAVFRVDAAEGKVELVEVKPVSAGGSAGGS [r12_82_TrMRF] | 16.2 ± 0.46 | 15.5 ± 0.205 | 15.8 ± 0.305 |
| SAGGSAGGSNTITVFMKVDDPEDALDEISEEIRDLFPPGIEVEIQPEQNEDKRGWVQVTIEFKSAGGSAGGS [r20_122_TrROS] | 4.36 ± 0.264 | 4.82 ± 1.38 | 4.27 ± 0.837 |
| SAGGSAGGSPDEGDPVKITILIMIMIPNENGEPYFIFIRVEITIDPKDNKIQITKIDEIYIFPSAGGSAGGS [r12_358_TrROS] | 15.6 ± 0.669 | 19.5 ± 0.418 | 18.5 ± 0.502 |
| SAGGSAGGSPDLPELNIEPVSTLPDGSKIYRADVSPEAIARLKAANPAVTVEEHPDFLLLFLRESAGGSAGG [r6_395_JUSTAS] | 1.99 ± 0.247 | 2.78 ± 0.243 | 2.36 ± 0.167 |
| SAGGSAGGSPESVTFPVGDYLVTVTRNPEDGSLTVTVYDPKTGKPIVLPPEVLAENPDLAENLSAGGSAGGS [r12_817_TrMRF] | 13.2 ± 0.46 | 9.84 ± 0.243 | 11.2 ± 0.234 |
| SAGGSAGGSPGKPYVEVEFTFIAFFPDGWLWVMTMKIEIPPDNNEIKPDIEMERIPLPPGQFLSAGGSAGGS [r12_811_TrROS] | 10.2 ± 0.209 | 11.4 ± 0.276 | 11.3 ± 0.335 |
